Key:
[1] = system: human peripheral blood B cells; test: Direct cytotoxic effects (PCD, ADCC, CDC) on normal cells; type: cell-based; details: antibody cross-linked or not
Protocol: All experiments were performed in triplicate.
Target cells were harvested as described above (under ADCC heading) and incubated with antibodies at 5 μg/mL for 60 min on ice and then washed. Human serum, normal or heat-inactivated (Sigma, Sweden), was added to tubes and the samples were incubated for 2 hr at 37° C. After completion of incubation, ToPo-Pro-3 (Invitrogen) was added at a final concentration of 0.3 μM and cells were analyzed for membrane permeabilization using flow cytometry.

[2] = system: RPMI-8226; test: SCID/xenograft MM model, subcutaneous; type: in vivo, mouse; details: RPMI-8226 (ICAM-1+), 2 mg/kg twice weekly from one day after tumor cell injection
Protocol: (§1) Since high expression of the BI-505 epitope in human MM was found, BI-505 was screened for in vivo anti-myeloma activity using SCID/xenograft models comprising four well-characterized MM cell-lines. […] Twice weekly dosing with 2 mg/kg of BI-505 starting one day after tumor cell injection reduced myeloma tumor growth in mice xenografted with ICAM-1-expressing cell lines EJM, RPMI-8226, and NCI-H929 by 98%, 96%, and 99%, respectively (FIGS. 17A and B).
(§2) All studies were conducted in accordance with guidelines of the Lund University Hospital, Sweden or University of Utah, Salt Lake City, USA following approval from the local ethical committee for animal care and use. BI-505 efficacy and potency was examined in subcutaneous and disseminated, prophylactic and therapeutic, experimental MM models comprising myeloma cell lines RPMI-8226, U266, EJM and OPM-2. The in vivo efficacy of BI-505 was compared to clinically approved drugs dexamethasone, melphalan, bortezomib and revlimid used at clinically relevant doses in therapeutic disseminated models comprising RPMI-8226 or primary patient myeloma cells, the latter following injection of patient cells in implanted of human fetal bone in SCID mice. For subcutaneous grafting, 1-5×10^6 tumor cells (RPMI-8226, NCI-H929, EJM, OPM-2, ARH-77, or Daudi) were subcutaneously injected at a volume of 100 μl into the left flank of anesthetized mice as described in the Supplemental Information. […] Treatment with saline, isotype control IgG, bortezomib, lenalidomide, dexamethasone, or BI-505 started on day 5 (RPMI-8226). Treatment with melphalan started on day 10. BI-505 or isotype IgG mAb was administered i.v. at 2 mg/kg/inj twice weekly for 8 weeks; bortezomib at 1 mg/kg/inj once weekly for 8 weeks; lenalidomide orally at 2 mg/kg/inj for 2 cycles consisting of 5 days of treatment and 2 days of wash out; melphalan i.v. at 3 mg/kg/inj once weekly for 8 weeks; and dexamethasone at 6 mg/kg/inj three times weekly for 2 weeks. […] The role of macrophages and NK cells for BI-505 in vivo antitumor activity was assessed using anti-asialo antibody treatment, clodronate liposome treatment or NK-cell deficient mice. […]
(§3) Treatment with antibodies by intraperitoneal injection started either 1 day after cell inoculation (prophylactic model) or when tumors reached approximately 100 mm^3 (established model). […] Macrophage and NK cell depletion was assessed upon termination of tumor bearing mice exposed to effector cell depleting agents (see above), spleens were removed and splenocytes isolated by mincing through a cell strainer (70 μm nylon mesh, BD Falcon 352350), erythrocytes were removed by lysis according to manufacturer (BD Pharm Lyse 555899, BD Biosciences).

[3] = system: EJM; test: SCID/xenograft MM model, subcutaneous; type: in vivo, mouse; details: EJM (ICAM-1+), 2 mg/kg twice weekly from one day after tumor cell injection
Protocol: as §1, §2, §3

[4] = system: OPM-2; test: SCID/xenograft MM model, subcutaneous; type: in vivo, mouse; details: ICAM-1-negative OPM-2, 2 mg/kg twice weekly
Protocol: as §1, §2, §3

[5] = system: NCI-H929; test: SCID/xenograft MM model, subcutaneous; type: in vivo, mouse; details: NCI-H929 (ICAM-1+), 2 mg/kg twice weekly from one day after tumor cell injection
Protocol: as §1, §2, §3

[6] = system: RPMI-8226 myeloma cells; test: NK-cell deficient NOD/Shi-scid/IL-2Rγ−/− mouse model; type: in vivo; details: RPMI-8226 grafted to NOD/Shi-scid/IL-2Rγ−/− mice
Protocol: (FIG. 20G) Tumor growth in BI-505 or control antibody treated NK-cell deficient NOD/Shi-scid/IL-2Rγ^−/− mice transplanted with RPMI-8226 myeloma cells. ***p<0.001.
Six-eight weeks-old female NOD/Shi-scid IL-2Rγ^−/− mice were obtained from Taconic, Denmark. Five million (5×10^6) RPMI-8226 or U266 tumor cells in 200 μL of RPMI 1640 were intravenously injected into the caudal vein (day 0). The tumor cell injection was performed 2 hr after whole body irradiation of mice (1.5 Gy, Cesium 137, IBL 637). At day 4, mice were randomized into 6 groups and treatment was initiated according to the schedule below.

[7] = system: endothelial cells (HUVEC, HMVEC); test: HUVEC and HMVEC apoptosis assay; type: cell-based
Protocol: (FIG. 23G) Antibody-induced endothelial cell apoptosis. HUVEC or HMVEC endothelial cells were incubated with paclitaxel (positive control), BI-505 or isotype control IgG in the presence or absence of cross-linking mAb. Apoptosis was measured by flow-cytometry following staining of cells with Annexin V-AF488.
Based on BI-505's documented ability to confer Fc:FcγR-dependent antitumor activity in malignant B cells, and a proposed general negative role for complement activation with regard to antibody tolerability (Lim et al.; van der Kolk et al., 2001), direct cytotoxic effects (PCD, ADCC, and CDC) of BI-505 in ICAM-1-expressing human peripheral blood B cells and endothelial cells were examined.
HUVEC (Cascade Biologics, pool of donors) and HMVEC (Cascade Biologics) were plated in 6-well plates (80 000-120 000 cells/well) in the presence or absence of 200 U/mL IFNγ, in order to induce ICAM-1 expression. Media was changed the day before apoptosis-induction experiments were performed and titrated concentrations of BI-505, enlimomab or isotype control antibody were added to the cells, in the presence or absence of cross-linking Fab (ab′)2 (same as the B-cell protocol). […] Necrotic cells were identified by increased fluorescence in the FL-4 channel and apoptotic cells by increased signal in the FL-1 channel on a flow cytometer (FACSCalibur, BD Bioscience).

B1: B11: fully human IgG1 antibody specific for ICAM-1; VH and VL sequences of FIG. 10 (SEQ ID NOs. 6 and 8) (antibody, listed as Homo sapiens, V domains shown)
VH: EVQLLESGGGLVQPGGSLRLSCAASGFTFSNAWMSWVRQAPGKGLEWVAFIWYDGSNKYYADSVKGRFTISRDNSKNTLYLQMNSLRAEDTAVYYCARYSGWYFDYWGQGTLVTVSS
VL: QSVLTQPPSASGTPGQRVTISCTGSSSNIGAGYDVHWYQQLPGTAPKLLIYDNNNRPSGVPDRFSGSKSGTSASLAISGLRSEDEADYYCQSYDSSLSAWLFGGGTKLTVLG
cell death in normal cells [1]: did not induce cell death
reduction of myeloma tumor growth [2]: 96%
reduction of myeloma tumor growth [3]: 98%
tumor growth [4]: did not affect tumor growth
reduction of myeloma tumor growth [5]: 99%
antitumor activity [6]: significant antitumor activity
cell death in normal cells [7]: did not induce cell death

— patent US9803013B2, “Biological materials and uses thereof” (BioInvent International AB, priority 2005, dated 2017)
